US12686710B2, “Anti-HER2 polypeptides derivatives as new diagnostic molecular probes” (BRACCO IMAGING S.P.A., priority 2019, dated 2026)

Key:
[1] = tested on: human (HSA), murine (MSA) and bovine (BSA) serum albumin; assay: ELISA control of binding to serum albumins
Text: (§1) To selectively target HER2 receptor, a library of affitins has been enriched against the target by several consecutive rounds of screening (up to 6 rounds). The enrichment of anti-HER2 afftins has been followed after any selection round by ELISA assay monitoring, also controlling the condition of negligible binding to human (HSA), murine (MSA) and bovine (BSA) serum albumin.

[2] = tested on: MCF-7 breast cancer cell line (low expressing HER2 receptor); assay: Cell internalization assay with Pe38 fusion, cell viability; format: cell-based, human; conditions: Aff03 tested as fusion Aff04-0-Pe38 (SEQ ID NO: 5), different concentrations
Procedure: (§2) The cells internalization of Aff03 was evaluated using a dedicated cell-based assay. […] Such truncated form (Pe38) needs to be internalized by means of the Aff03 to keep its cytotoxic activity.
(§3) To test internalization, then, the viability of the breast adenocarcinoma cell line SK-BR-3 (overexpressing HER2 receptor) and of the breast cancer cell line MCF-7 (low expressing HER2 receptor) was measured at different nanofitin concentrations.

[3] = tested on: SK-BR-3 breast adenocarcinoma cell line (overexpressing HER2 receptor); assay: as above; format: cell-based, human; conditions: Aff03 tested as fusion Aff04-0-Pe38 (SEQ ID NO: 5), different concentrations
Procedure: as §2, §3

HER2 = HER2 (Homo sapiens, UniProt P04626); assay: ELISA monitoring of affitin selection against HER2; format: binding; conditions: end of selection process
Text: as §1

B1: Aff03: 64 aac affitin of SEQ ID NO: 1, HER2-binding polypeptide (protein, listed as Sulfolobus acidocaldarius)
chain: VKVKFGHMGEEKEVDTSKIYAVNRAGKFVHFAYDDNGKFGSGSVPEKDAPKELLDMLARAEREK
[1]
  binding to albumin: absence of binding to albumin
[2]
  cytotoxic induction (cell viability) as measure of internalization: no significant alterations
[3]
  cytotoxic induction (cell viability) as measure of internalization: dose-dependent cytotoxic induction
HER2
  affinity to HER2: nanomolar affinity
